The record followed here is US20200199241A1 (Chugai, published 2020).

B1: IgG1-F585 (antibody)
heavy: QVQLQESGPGLVKPSETLSLTCAVSGHSISHDHAWSWVRQPPGEGLEWIGFISYSGITNYNPSLQGRVTISRDNSKNTLYLQMNSLRAEDTAVYYCARSLARTTAMDYWGEGTLVTVSSASTKGPSVFPLAPSSKSTSGGTAALGCLVKDYFPEPVTVSWNSGALTSGVHTFPAVLQSSGLYSLSSVVTVPSSSLGTQTYICNVNHKPSNTKVDKKVEPKSCDKTHTCPPCPAPELLGGPKVFLFPPKPKDTLYISRTPEVTCVVVDVSHEDPEVKFNWYVDGVEVHEAKTKPREEQYNSTYRVVSVLTPLHQDWLNGKEYKCKVSNKALPAPIEKTISKAKGQPREPQVYTLPPSRDELTKNQVSLTCLVKGFYPSDIAVEWESNGQPENNYKTTPPVLDSDGSFFLYSKLTVDKSRWQQGNVFSCSVMHEALHNHYTQKSLSLSP
light: not shown
notes: EU numbering; copies: 2 + 2
B2: IgG1-F646 (antibody)
heavy: B1 heavy with E288N, N299A, N436Y
light: not shown
notes: EU numbering; copies: 2 + 2
B3: IgG1-F650 (antibody)
heavy: B1 heavy with T258E, E288N, P310V, N436Y
light: not shown
notes: EU numbering; copies: 2 + 2
B4: IgG1-F595 (antibody)
heavy: B1 heavy with E288N, P310V, M430I, N436Y
light: not shown
notes: EU numbering; copies: 2 + 2
B5: IgG1-F634 (antibody)
heavy: B1 heavy with V284D, E288N, N436Y
light: not shown
notes: EU numbering; copies: 2 + 2
B6: IgG1-F654 (antibody)
heavy: B1 heavy with L237K, E288N, N436Y
light: not shown
notes: EU numbering; copies: 2 + 2
B7: IgG1-F656 (antibody)
heavy: B1 heavy with G239K, E288N, N436Y
light: not shown
notes: EU numbering; copies: 2 + 2
B8: IgG1-F624 (antibody)
heavy: B1 heavy with Y254M, P259A, T309Q, P310V, M430L, N436Y
light: not shown
notes: EU numbering; copies: 2 + 2
B9: IgG1-F652 (antibody)
heavy: B1 heavy with P240D, K241S, E288N, P310V, N436Y
light: not shown
notes: copies: 2 + 2
B10: IgG1-F649 (antibody)
heavy: B1 heavy with P310V, N436Y
light: not shown
notes: EU numbering; copies: 2 + 2
B11: IgG1-F594 (antibody)
heavy: B1 heavy with T258E, E288N, M430I, N436Y
light: not shown
notes: EU numbering; copies: 2 + 2
B12: IgG1-F633 (antibody)
heavy: B1 heavy with K241S, V284D, E288N, N436Y
light: not shown
notes: EU numbering; copies: 2 + 2
B13: IgG1-F586 (antibody)
heavy: B1 heavy with M430I
light: not shown
notes: EU numbering; copies: 2 + 2
B14: IgG1-F664 (antibody)
heavy: B1 heavy with K241S, E288A, N436Y
light: not shown
notes: EU numbering; copies: 2 + 2
B15: IgG1-F639 (antibody)
heavy: B1 heavy with K241S, E288N, G387R, N436Y
light: not shown
notes: EU numbering; copies: 2 + 2
B16: IgG1-F623 (antibody)
heavy: B1 heavy with Y254W, E288N, P310V, N436W
light: not shown
notes: EU numbering; copies: 2 + 2
B17: IgG1-F640 (antibody)
heavy: B1 heavy with E288N, G387R, N436Y
light: not shown
notes: EU numbering; copies: 2 + 2
B18: IgG1-F637 (antibody)
heavy: B1 heavy with K241S, E288N, K290S, N436Y
light: not shown
notes: EU numbering; copies: 2 + 2
B19: IgG1-F655 (antibody)
heavy: B1 heavy with L237R, E288N, N436Y
light: not shown
notes: EU numbering; copies: 2 + 2
B20: IgG1-F621 (antibody)
heavy: B1 heavy with E288N, T309A, P310V, Q313H, N436Y
light: not shown
notes: EU numbering; copies: 2 + 2
B21: IgG1-F635 (antibody)
heavy: B1 heavy with K241S, V286K, E288N, N436Y
light: not shown
notes: EU numbering; copies: 2 + 2
B22: IgG1-F625 (antibody)
heavy: B1 heavy with Y254M, P259A, E288N, T309Q, P310V, M430L, N436Y
light: not shown
notes: EU numbering; copies: 2 + 2
B23: IgG1-F657 (antibody)
heavy: B1 heavy with G239R, E288N, N436Y
light: not shown
notes: EU numbering; copies: 2 + 2
B24: IgG1-F622 (antibody)
heavy: B1 heavy with T258Q, E288N, P310V, N436Y
light: not shown
notes: EU numbering; copies: 2 + 2
B25: IgG1-F592 (antibody)
heavy: B1 heavy with K241S, S256T, E288N, P310V, E384A, N436Y
light: not shown
notes: EU numbering; copies: 2 + 2
B26: IgG1-F598 (antibody)
heavy: B1 heavy with K241S, E288N, P310V, D314A, P389E, N436Y
light: not shown
notes: EU numbering; copies: 2 + 2
B27: IgG1-F642 (antibody)
heavy: B1 heavy with E288N, Q388K, N436Y
light: not shown
notes: EU numbering; copies: 2 + 2
B28: IgG1-F651 (antibody)
heavy: B1 heavy with E288N, P310V, Q313A, N436Y
light: not shown
notes: EU numbering; copies: 2 + 2
B29: IgG1-F660 (antibody)
heavy: B1 heavy with E288N, P331K, N436Y
light: not shown
notes: EU numbering; copies: 2 + 2
B30: IgG1-F665 (antibody)
heavy: B1 heavy with K241S, E288D, N436Y
light: not shown
notes: EU numbering; copies: 2 + 2
B31: IgG1-F599 (antibody)
heavy: B1 heavy with K241S, E288N, P310V, P389E, M430Y, N436Y
light: not shown
notes: EU numbering; copies: 2 + 2
B32: IgG1-F636 (antibody)
heavy: B1 heavy with V286K, E288N, N436Y
light: not shown
notes: EU numbering; copies: 2 + 2
B33: IgG1-F619 (antibody)
heavy: B1 heavy with E288N, P310V, N436Y
light: not shown
notes: EU numbering; copies: 2 + 2
B34: IgG1-F638 (antibody)
heavy: B1 heavy with E288N, K290S, N436Y
light: not shown
notes: EU numbering; copies: 2 + 2
B35: IgG1-F647 (antibody)
heavy: B1 heavy with P240D, K241S, E288N, N436Y
light: not shown
notes: EU numbering; copies: 2 + 2
B36: IgG1-F630 (antibody)
heavy: B1 heavy with V281L, E288N, N436Y
light: not shown
notes: EU numbering; copies: 2 + 2
B37: IgG1-F645 (antibody)
heavy: B1 heavy with E288N, L330R, N436Y
light: not shown
notes: EU numbering; copies: 2 + 2
B38: IgG1-F596 (antibody)
heavy: B1 heavy with K241S, E288N, P310V, D314A, E384A, M430Y, N436Y
light: not shown
notes: EU numbering; copies: 2 + 2
B39: IgG1-F641 (antibody)
heavy: B1 heavy with K241S, E288N, Q388K, N436Y
light: not shown
notes: EU numbering; copies: 2 + 2
B40: IgG1-F620 (antibody)
heavy: B1 heavy with S256T, E288N, P310V, N436Y
light: not shown
notes: EU numbering; copies: 2 + 2
B41: IgG1-F659 (antibody)
heavy: B1 heavy with P240R, E288N, N436Y
light: not shown
notes: EU numbering; copies: 2 + 2
B42: IgG1-F643 (antibody)
heavy: B1 heavy with L237G, G238R, E288N, N436Y
light: not shown
notes: EU numbering; copies: 2 + 2
B43: IgG1-F612 (antibody)
heavy: B1 heavy with K241S, E288N, T309P, P310I, L311A, N436Y
light: not shown
notes: EU numbering; copies: 2 + 2
B44: IgG1-F601 (antibody)
heavy: B1 heavy with K241S, N436Y
light: not shown
notes: EU numbering; copies: 2 + 2
B45: IgG1-F663 (antibody)
heavy: B1 heavy with T309Q, Q313A, N436Y
light: not shown
notes: EU numbering; copies: 2 + 2
B46: IgG1-F629 (antibody)
heavy: B1 heavy with K241S, V281L, E288N, N436Y
light: not shown
notes: EU numbering; copies: 2 + 2
B47: IgG1-F587 (antibody)
heavy: B1 heavy with K241S, P310V, M430L, N436Y
light: not shown
notes: EU numbering; copies: 2 + 2
B48: IgG1-F661 (antibody)
heavy: B1 heavy with E288N, P331R, N436Y
light: not shown
notes: EU numbering; copies: 2 + 2
B49: IgG1-F593 (antibody)
heavy: B1 heavy with S256T, E288N, M430I, N436Y
light: not shown
notes: EU numbering; copies: 2 + 2
B50: IgG1-F597 (antibody)
heavy: B1 heavy with K241S, E288N, P310V, E384A, P389E, N436Y
light: not shown
notes: EU numbering; copies: 2 + 2
B51: IgG1-F611 (antibody)
heavy: B1 heavy with K241S, E288N, V307T, T309P, P310I, L311A, N436Y
light: not shown
notes: EU numbering; copies: 2 + 2
B52: IgG1-F658 (antibody)
heavy: B1 heavy with P240K, E288N, N436Y
light: not shown
notes: EU numbering; copies: 2 + 2
B53: IgG1-F618 (antibody)
heavy: B1 heavy with Y254M, E288N, P310F, N436Y
light: not shown
notes: EU numbering; copies: 2 + 2
B54: IgG1-F644 (antibody)
heavy: B1 heavy with G238R, E288N, N436Y
light: not shown
notes: EU numbering; copies: 2 + 2
B55: IgG1-F600 (antibody)
heavy: B1 heavy with K241S, T258Q, E288N, P310V, E384A, N436Y
light: not shown
notes: EU numbering; copies: 2 + 2

Changes are numbered by the printed parent chain.

In the assay the target is T1, human FcRn (soluble human FcRn complexed with β2-microglobulin) (human, UniProt P61769 21-119, limits assumed).
T1 construct: also called hFcRn
T1 sequence (chain, as listed by the source limits assumed, chain 1 of 2): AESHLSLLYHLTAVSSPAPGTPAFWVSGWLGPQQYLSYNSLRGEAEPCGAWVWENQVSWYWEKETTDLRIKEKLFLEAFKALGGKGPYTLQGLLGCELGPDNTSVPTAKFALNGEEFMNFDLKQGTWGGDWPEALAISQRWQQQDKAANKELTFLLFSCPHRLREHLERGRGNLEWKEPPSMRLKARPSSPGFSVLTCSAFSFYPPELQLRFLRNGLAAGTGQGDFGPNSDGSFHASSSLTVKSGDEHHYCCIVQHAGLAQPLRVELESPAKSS
T1 sequence (P61769 21-119 limits assumed, chain 2 of 2): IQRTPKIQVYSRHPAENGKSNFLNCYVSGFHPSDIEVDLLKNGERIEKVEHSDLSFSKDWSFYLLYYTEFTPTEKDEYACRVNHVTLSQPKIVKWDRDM
The assay is described as follows: SPR, pH 7.0.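 Further: antibodies captured on a Protein L sensor chip with human FcRn injected as analyte, KD calculated from fitted association and dissociation rate constants.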
For B1, the equilibrium dissociation constant (Kd) was determined as 290 nM.

As to B2, the Kd was 38 nM.

As to B3, the equilibrium dissociation constant (Kd) worked out at 170 nM.

Turning to B4, the affinity, expressed as Kd, was 180 nM.

Consider B5, for which binding was characterised by a dissociation constant (Kd) of 32 nM.

In the case of B6, the Kd came out at 32 nM.

B7 yielded a Kd of 33 nM.

The molecule B8 registered a dissociation constant Kd of 14 nM.

Molecule B9 had a dissociation constant Kd of 240 nM.

For the molecule B10, binding was characterised by a dissociation constant (Kd) of 120 nM.

With B11, the Kd was 16 nM.

B12 registered a Kd of 24 nM.

On to B13, for which binding was put at a Kd of 140 nM.

Take B14: the Kd stood at 39 nM.

In the case of B15, the dissociation constant Kd was determined as 27 nM.

In turn, B16 displayed a Kd of 180 nM.

Molecule B17 yielded an equilibrium dissociation constant (Kd) of 36 nM.

B18 displayed a dissociation constant (Kd) of 150 nM.

B19 gave a Kd of 34 nM.

In turn, B20 displayed a Kd of 150 nM.

The molecule B21 had a dissociation constant (Kd) of 45 nM.

B22 showed a dissociation constant Kd of 76 nM.

Molecule B23 yielded a dissociation constant Kd of 32 nM.

For B24, binding was put at a Kd of 350 nM.

B25 yielded a Kd of 200 nM.

On to B26, for which binding was put at a Kd of 140 nM.

The molecule B27 displayed a dissociation constant (Kd) of 30 nM.

With B28, the Kd was 180 nM.

Consider B29, for which the affinity, expressed as Kd, was 31 nM.

As to B30, binding was characterised by a dissociation constant (Kd) of 20 nM.

In turn, B31 came in with a Kd of 520 nM.

B32: the Kd came out at 48 nM.

On to B33, for which the Kd came to 310 nM.

Molecule B34 gave a dissociation constant Kd of 140 nM.

For the molecule B35, binding was put at a Kd of 29 nM.

As for B36, the dissociation constant (Kd) stood at 37 nM.

Turning to B37, the Kd turned out to be 33 nM.

B38 had a Kd of 400 nM.

On to B39, for which the dissociation constant Kd came to 30 nM.

B40 came in with a Kd of 210 nM.

Regarding B41, binding was characterised by a dissociation constant (Kd) of 30 nM.

In turn, B42 registered a Kd of 32 nM.

On to B43, for which the Kd is 360 nM.

Molecule B44 came in with a dissociation constant (Kd) of 9.6 nM.

In turn, B45 came in with a Kd of 6.4 nM.

Turning to B46, the Kd came out at 39 nM.

B47 came in with a Kd of 190 nM.

For the molecule B48, binding was put at a Kd of 34 nM.

Consider B49, for which binding was put at a Kd of 31 nM.

Molecule B50 came in with a Kd of 220 nM.

Molecule B51 displayed a dissociation constant Kd of 280 nM.

In the case of B52, the equilibrium dissociation constant (Kd) stood at 32 nM.

B53 registered a Kd of 640 nM.

In the case of B54, the Kd was found to be 30 nM.

For B55, the equilibrium dissociation constant (Kd) came to 280 nM.
